Test results taken from the nanobody polyreactivity screen of Harvey et al. (2022).

assay: yeast display, Sf9 membrane polyspecificity reagent, FACS + sequencing; frameworks hold sequencing errors
Procedure, shortened: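 Nanobodies came from a synthetic yeast display library in Saccharomyces cerevisiae BJ5465, induced with galactose for 36–48 hours and stained for 1 hour at 4 °C with 10% biotinylated, detergent-solubilized Sf9 membrane reagent. Cells were enriched on streptavidin microbeads and then FACS-sorted, with low and high (top ~1%) gates set on anti-HA fluorescence for expression and streptavidin fluorescence for reagent binding. Each polyreactivity label reflects the gate a clone came from. Genes were amplified by colony PCR, sequenced by MiSeq 2 × 250 and filtered by CDR length.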

| Sequence | polyreactivity (PSR sort gate) |
| --- | --- |
| QVQLVESGGGLVQAGGSLRLSCAASGSIFYGNAMGWYRQAPGKERELVAAISTRGGSTYYADSVKGRFTISRDYAKNTVYLQMNSLKPEDTAVYYCNADSRRRLFDYWGQGTQVTVSS | high polyreactivity |
| QVQLVESGGGLVQAGGSLRLSCAASGSIFYGYAMGWYRQAPGKEREFVAGIDSSGGSTSYADSVKGRFTISRDNAKNTVYLQMNSLKPEDTAVYYCAKQIVSGRRVDRNDYWGQGTQVTVSS | low polyreactivity |
| QVQLVESGGGLVQAGGSLRLSCAASGSIFYGYAMGWYRQAPGKERELVAAISLSGGRTYYADSVKGRFTLSRDNAKNPVYLQRNSLKPEDTAVYYCAAQTRSSDGPSWYYYWGQGTQVTVSS | high polyreactivity |
| QVQLVESGGGLVQAGGSLRLSCAASGSIFYGYAMGWYRQAPGKERELVASITGSGGSTSYADSVKGRFTISRDNAKNTVYLQMNSLKPEDTAVYYCNTVLLQLYKLASGYDYWGQGTQVTVSS | high polyreactivity |
| QVQLVESGGGLVQAGGSLRLSCAASGSIFYGYTMGWYRQAPGKERELVAGITRSGTSTYYADSVKGRFTISRDNAKNTVYLQMNSLNPQDTAVYYCARVGLSKRYGSWGQGTEVTVSS | high polyreactivity |
| QVQLVESGGGLVQAGGSLRLSCAASGSIFYHYAMGWYIQAPGKERELVAAISWRGASTYYADSVKGRFTISRDNAKNTVYLQMNSLKPEDTAVYYCARLSSSHPLYRDDYWGQGTQVTVSS | high polyreactivity |
| QVQLVESGGGLVQAGGSLRLSCAASGSIFYHYAMGWYRQAPGKDRELVADITQSGGTTDYADSVKGRFTISRYNAKNTVYLQMNSLKPEDTAVYYCAADGDTTSPTYYIFWSGEFDYWGQGNQVTVSS | low polyreactivity |
| QVQLVESGGGLVQAGGSLRLSCAASGSIFYHYAMGWYRQAPGKERELVAAISRSGGRTYYADSVKGRFTISRDNAKNTVYLQMNSLKPEDTAVYYCAAGTSWPWYQRDYWGQGTQVTVSS | low polyreactivity |
| QVQLVESGGGLVQAGGSLRLSCAASGSIFYINAMGWYRQAPGKEREFVATITWSGDSTYYADSVKGRFTISRDNAKNTVYLQMNSLKPDDTAVYYCNARKQYPSYVDWEYDYWGQGTQVTVSS | low polyreactivity |
| QVQLVESGGGLVQAGGSLRLSCAASGSIFYINAMGWYRQAPGKERELGAAITSDGSTYYADSVKGRFTISRDKAKHTVYLQMNSLKPEDTAVYYCAADLTSDQFLYYWYWFYSWGQGTQVTVSS | low polyreactivity |
| QVQLVESGGGLVQAGGSLRLSCAASGSIFYINAMGWYRQAPGKERELVAAINRGGSTNYADSVKGRFTISRDNAKNTVYLQMYSLKPEDTAVYYCAAYIYKTYRYYYWGQGTQVTVSS | high polyreactivity |
| QVQLVESGGGLVQAGGSLRLSCAASGSIFYINPMGWYRQAPGKERELVAAINFSDGRTYYADSVKGRFTISRDNAKNTVYLQMNSLKPEDTAVYYCAAAVYPSEYDYWGQGTQVTVSS | low polyreactivity |
| QVQLVESGGGLVQAGGSLRLSCAASGSIFYINTMGWYRQAPGKEREMVATIRTSGGSTYADSVKGRFTISRDNAKNTVYLQMNSLKPEDTAVYYCAVRRYRSSSYGYYSWGQGTQVTVSS | high polyreactivity |
| QVQLVESGGGLVQAGGSLRLSCAASGSIFYKNAMGWYRQAPGKVRELVAAITGSGGRTYYADSVKGRFTISRDNAKNTVYLQMNSLKPEDTAVYYCNTDPSPRYRYDYWGQGTQVTVSS | high polyreactivity |
| QVQLVESGGGLVQAGGSLRLSCAASGSIFYKNVMGWYRQAPGKEREFVAAISSSGGSTYYADSVKGRFTISRDNAKNTVYLQMNSLKPEDTAVYYCAATGWGLFRRRYDYWGQGTQVTVSS | low polyreactivity |
| QVQLVESGGGLVQAGGSLRLSCAASGSIFYKYALGWYRQAPGKERELVASITWSDGNTNYADSVKGRFTISRDNAKNTVYLQMNSLKPEDTAVYYCADGGWYPTSRIFDYWGQGTQVTVSS | low polyreactivity |
| QVQLVESGGGLVQAGGSLRLSCAASGSIFYKYAMGWYRQAPGKERELVAAISTSGGSTYYADSVKGRFTISRDNAKNTVYLQMNSLKPEDTAVYYCAKARSYGLGRSYYWGQGTQVTVSS | high polyreactivity |
| QVQLVESGGGLVQAGGSLRLSCAASGSIFYKYMGWYRQAPGKERELVAAITWSGGSTYYADSVKGRFTISRDNAKNTVYLQMNSLKPEDTAVYYCAARDYTRYGYGYWGQGTQVTVSS | high polyreactivity |
| QVQLVESGGGLVQAGGSLRLSCAASGSIFYLYAMGWYRHAPGKERELVATITVSGSSTYADSVKGRFTISRDNAKNTVYLQMISLKPEDTAVYYCAADGGRQVYTQLYDYWGQGTQVTVSS | low polyreactivity |
| QVQLVESGGGLVQAGGSLRLSCAASGSIFYLYAMGWYRPAPGKERELVAAISSGGSTYYADSVKGRFTISRDNAKNTVYLQMNSLKPEDTAVYYCNADSYYYPYDYWGQGTQVTVSS | low polyreactivity |
| QVQLVESGGGLVQAGGSLRLSCAASGSIFYLYAMGWYRQAPGKERELVAAINFRGGSTYADSVKGRFTISRDNAKNTVYLQMNSLKPEDTAVYYCAAKADYRMNYWGQGTQVTVSS | high polyreactivity |
| QVQLVESGGGLVQAGGSLRLSCAASGSIFYLYAMGWYRQAPGKERELVARITWSGGRTFYADSVKGRFTISRDNAKNTVYLQMNSLKPEDTAVYYCNARYHGKYDYWGQGTQVTVSS | high polyreactivity |

| Sequence | polyreactivity (PSR sort gate) |
| --- | --- |
| QVQLVESGGGLVQAGGSLRLSCAASGSIFYLYAMGWYRQAPGKERELVATISLSSGSTYAASVKGRFTISRDNAKNTVYLQMNSLKPEDTAVDYCAKDLTRWGYNEYDYWGQGTQVSVSS | low polyreactivity |
| QVQLVESGGGLVQAGGSLRLSCAASGSIFYLYTMGWYRQATRKERELVAGISNGDRTYYADSVKGRFTISRDNAKNTVYFQMNSLKPEDTAVYYCAKGWYRIKRNDYWGQGTQVTVAS | low polyreactivity |
| QVQLVESGGGLVQAGGSLRLSCAASGSIFYLYVMGWYRQAPGKERELVAAINWSGSRTYYADSVKGRFTISRDNAKNTVYLQMNSLKPEDTAVYYCNAVRATGQASQEGEYWGQGTQVTVSS | high polyreactivity |
| QVQLVESGGGLVQAGGSLRLSCAASGSIFYNNSKGWYRPAPGKERELVAAISLRGGSTYYADSVKGRFTISRDNAKNTVYLQMNSLKPEDSAVYYCAAVTGARYYPARASRGKFDYWGQGTQVTVSS | high polyreactivity |
| QVQLVESGGGLVQAGGSLRLSCAASGSIFYNYAMGWSRQAPGKERELVAAITANTGSTYYADSVKGRFTISRVNAKNTVYLQMNSLKPEDTAVYYCATTWTIRRYRYSPRLVDYWGQGTQVTVSS | low polyreactivity |
| QVQLVESGGGLVQAGGSLRLSCAASGSIFYNYAMGWYRQAPGKERELVAAISQSGGSTRYADSVKGRFTISRDNAKNTVYVQMNSLKPEDTAVYYCAASRRKGQGSAGFGYWGQGTQVTVSS | high polyreactivity |
| QVQLVESGGGLVQAGGSLRLSCAASGSIFYNYAMGWYRQAPGKERELVAAISSNGGSTYYADSVKGRFTISRDNAKNTVYLQMNSLKPEDTAVYYCAKYLSPGERHSYDYWGQGTQVTVSS | high polyreactivity |
| QVQLVESGGGLVQAGGSLRLSCAASGSIFYNYGMGWYRQAPGKERELVAAIRASGDSTYYADSVKGRFTISRDNAKNTVYLQMNSLKPEDTAVYYCAARPNQSYYGLYFYWGQGTQVTVSS | low polyreactivity |
| QVQLVESGGGLVQAGGSLRLSCAASGSIFYPNAMGWYRQAPGKERELVAAISSSGGTNYADSVKGRFTISRDNAKNTVYLQMNSLKPEDTAVYYCNARDKVRYRYSRMDYWGQGTQVTVSS | low polyreactivity |
| QVQLVESGGGLVQAGGSLRLSCAASGSIFYPNAMGWYRQAPGKERELVAAITTGGSTNYADSVKGRFTISRDNAKNTVYLQMNSLKPEDTAVYYCNARHRYHSYTQPRWKYDYWGQGTQVTVSS | low polyreactivity |
| QVQLVESGGGLVQAGGSLRLSCAASGSIFYPYAMGWYRPAPGKERELVASITINDGSTYYADSVKGRFTISRDNAKNTVYLQMNSLKPEDTAVYYCNVEPVPGFGSEYEYWGQGTQVTVSS | low polyreactivity |
| QVQLVESGGGLVQAGGSLRLSCAASGSIFYPYAMGWYRQAPGKERELVAAIDYSDGSTYYADSVKGRFTISRDNAKNTVYLQMNSLKPEDTAVYYCAADGTYVWGSEEGNYWGQGTQVTVSS | low polyreactivity |
| QVQLVESGGGLVQAGGSLRLSCAASGSIFYPYAMGWYRQAPGKERELVAAIRWRGGNTYYADSVKGRFTFSRDNAKNTVYLQMNSLKPEDTAVYYCAADGKYLQGFGYYYWGQGTQVTVSS | high polyreactivity |
| QVQLVESGGGLVQAGGSLRLSCAASGSIFYPYAMGWYRQAPGKERELVAAISSGGTTYYADSVKGRFTISRDNAKNTVYLQMNSLKPEDTAVYYCAAGFYLRAVWMDYWGQGTQVTVSS | high polyreactivity |
| QVQLVESGGGLVQAGGSLRLSCAASGSIFYQNAMGWYRQAPGKEREFVAAIRSSGSSTYYADSVKGRFTISRDNAKNTVYVQMNCLKPEDTAVYYCAADNPGGYRGKVDYWGQGTQVTVSS | high polyreactivity |
| QVQLVESGGGLVQAGGSLRLSCAASGSIFYQYAMGWYRQAPGKERELVAAISRSGGSTYYADSVKGRFTISRDNPKNTVYLQMNSLKPEDTAGYYCAARAVRAAYDYWGQGSQVTVSS | low polyreactivity |
| QVQLVESGGGLVQAGGSLRLSCAASGSIFYQYAMGWYRQAPGKERELVAGITWSGGSTYYADSVKGRFTISRDNAKYTVYLQMNSLKPEDTAVFYCAAQYFWYVYSYDYWGQGTQVTVSS | high polyreactivity |
| QVQLVESGGGLVQAGGSLRLSCAASGSIFYQYAMGWYRQAPGKERELVARIRGSTGTTYYADSVKGRFTFSRDYAKNTVYLQMNSLKPEDNAVYYCNAARYQGRSRFDYWGQGTQVTVSS | high polyreactivity |
| QVQLVESGGGLVQAGGSLRLSCAASGSIFYRNAMGWYRQAPGKERELVAAISSDGSTNYADSVKVRFTISRDNAKNTVYLQMNSLKPEDTAVYYCAAPWTQILDYWGQGTQVTVSS | low polyreactivity |
| QVQLVESGGGLVQAGGSLRLSCAASGSIFYRNAMGWYRQAPGKERELVAAISWSGSRTYYADSVKGRFTISRDNAKNTVYLQMNSLKPEDTAVYYCNRQYNQWIHYYYRMDYWGQGTQVTVSS | high polyreactivity |
| QVQLVESGGGLVQAGGSLRLSCAASGSIFYRYAMGWYRQAPGKERELVAAISDRSGSTYYADSVKGRFTISRDNAKNTVYLQMNSLKPEDTAVYYCAAAYNYRAAGYGLSRYYYWGQGTQVTVSS | high polyreactivity |
